Reference: PMC3792905, “HIV-1 Vpr Induces the Degradation of ZIP and sZIP, Adaptors of the NuRD Chromatin Remodeling Complex, by Hijacking DCAF1/VprBP” (PLoS ONE, 2013)

B1: HA-tagged Vpr from HIV-1 LAI (natural protein)
chain: MEQAPEDQGPQREPHNEWTLELLEELKNEAVRHFPRIWLHGLGQHIYETYGDTWAGVEAIIRILQQLLFIHFRIGCRHSRIGVTQQRRARNGASRS

Legend:
DCAF1 [1] = molecular target: DCAF1 (UniProt Q9Y4B6)
DCAF1 [2] = molecular target: DCAF1 (UniProt Q9Y4B6 1-1507); experiment: cell-based or functional assay
Chain of DCAF1 (UniProt Q9Y4B6 1-1507) (Q9Y4B6 whole entry): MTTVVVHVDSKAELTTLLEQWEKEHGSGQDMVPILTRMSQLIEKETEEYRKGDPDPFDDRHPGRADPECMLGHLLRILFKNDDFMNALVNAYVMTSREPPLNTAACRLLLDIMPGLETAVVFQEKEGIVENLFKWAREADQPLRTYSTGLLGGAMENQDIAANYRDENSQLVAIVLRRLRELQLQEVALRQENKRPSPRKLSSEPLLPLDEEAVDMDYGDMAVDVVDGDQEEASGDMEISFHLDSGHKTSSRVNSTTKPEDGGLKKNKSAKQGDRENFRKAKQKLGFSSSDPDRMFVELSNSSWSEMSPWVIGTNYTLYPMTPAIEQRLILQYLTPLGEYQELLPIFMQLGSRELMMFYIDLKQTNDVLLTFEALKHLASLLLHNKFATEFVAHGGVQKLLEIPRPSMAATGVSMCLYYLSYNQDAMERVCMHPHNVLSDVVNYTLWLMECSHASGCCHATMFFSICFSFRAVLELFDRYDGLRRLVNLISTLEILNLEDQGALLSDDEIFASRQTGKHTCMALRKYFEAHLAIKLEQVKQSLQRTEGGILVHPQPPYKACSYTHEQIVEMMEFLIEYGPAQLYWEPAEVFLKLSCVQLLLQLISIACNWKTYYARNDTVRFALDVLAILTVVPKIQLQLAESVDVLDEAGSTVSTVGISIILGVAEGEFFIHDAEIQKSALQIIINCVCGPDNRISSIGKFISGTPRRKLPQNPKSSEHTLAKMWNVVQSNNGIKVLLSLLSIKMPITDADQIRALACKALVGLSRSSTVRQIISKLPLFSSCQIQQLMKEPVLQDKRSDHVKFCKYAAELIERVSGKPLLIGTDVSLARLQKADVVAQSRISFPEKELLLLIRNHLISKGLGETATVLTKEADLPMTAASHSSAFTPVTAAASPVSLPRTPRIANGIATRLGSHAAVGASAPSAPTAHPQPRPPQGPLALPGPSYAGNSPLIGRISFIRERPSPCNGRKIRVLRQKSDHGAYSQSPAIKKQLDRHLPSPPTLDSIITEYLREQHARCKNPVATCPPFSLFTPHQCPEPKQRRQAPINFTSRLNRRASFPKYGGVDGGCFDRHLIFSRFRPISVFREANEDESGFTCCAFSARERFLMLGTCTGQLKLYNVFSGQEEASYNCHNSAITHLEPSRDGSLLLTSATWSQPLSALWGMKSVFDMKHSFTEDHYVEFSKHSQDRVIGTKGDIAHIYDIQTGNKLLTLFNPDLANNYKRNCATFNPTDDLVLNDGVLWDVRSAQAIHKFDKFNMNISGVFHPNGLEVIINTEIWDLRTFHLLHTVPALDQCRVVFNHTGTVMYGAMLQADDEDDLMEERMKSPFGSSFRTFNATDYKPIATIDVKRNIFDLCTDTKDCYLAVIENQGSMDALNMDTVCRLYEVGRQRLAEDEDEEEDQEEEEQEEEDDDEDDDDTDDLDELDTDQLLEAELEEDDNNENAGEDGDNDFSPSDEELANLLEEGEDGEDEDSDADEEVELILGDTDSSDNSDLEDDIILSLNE

Chain of DCAF1 (UniProt Q9Y4B6) (Q9Y4B6 whole entry): as above

Molecule	sZIP expression (FLAG/GFP signal ratio by Western blot) left in HeLa cells co-expressing FLAG-sZIP and the HA-tagged Vpr protein (DCAF1 [1])	sZIP expression (FLAG/GFP signal ratio by Western blot) left in HeLa cells co-expressing FLAG-sZIP and the HA-tagged Vpr protein (DCAF1 [2])
VprQ65R (from UniProt P05928 1-96) (natural protein)	50%	–
B1	–	< 15%
